The values below come from article PMC5843810, “18th European Symposium on Radiopharmacy and Radiopharmaceuticals” (EJNMMI Radiopharmacy and Chemistry, 2016).

Primed or numbered codes have the meaning given here. Side-chain parts run from the residue outwards. [ ]: non-standard residue; d: D form. PEG7′ = not defined here; Pra = C#CC[C@H](N)C(=O)O; Tz = not defined here

Assay [1] concerns the target integrin αvβ3 receptor of αvβ3-positive melanoma tumors in C57BL/6 mice (UniProt P43406).
The target in assay [2] is T1, αvβ3 integrin receptors on tumor cells, P06756.
T1 chain 1: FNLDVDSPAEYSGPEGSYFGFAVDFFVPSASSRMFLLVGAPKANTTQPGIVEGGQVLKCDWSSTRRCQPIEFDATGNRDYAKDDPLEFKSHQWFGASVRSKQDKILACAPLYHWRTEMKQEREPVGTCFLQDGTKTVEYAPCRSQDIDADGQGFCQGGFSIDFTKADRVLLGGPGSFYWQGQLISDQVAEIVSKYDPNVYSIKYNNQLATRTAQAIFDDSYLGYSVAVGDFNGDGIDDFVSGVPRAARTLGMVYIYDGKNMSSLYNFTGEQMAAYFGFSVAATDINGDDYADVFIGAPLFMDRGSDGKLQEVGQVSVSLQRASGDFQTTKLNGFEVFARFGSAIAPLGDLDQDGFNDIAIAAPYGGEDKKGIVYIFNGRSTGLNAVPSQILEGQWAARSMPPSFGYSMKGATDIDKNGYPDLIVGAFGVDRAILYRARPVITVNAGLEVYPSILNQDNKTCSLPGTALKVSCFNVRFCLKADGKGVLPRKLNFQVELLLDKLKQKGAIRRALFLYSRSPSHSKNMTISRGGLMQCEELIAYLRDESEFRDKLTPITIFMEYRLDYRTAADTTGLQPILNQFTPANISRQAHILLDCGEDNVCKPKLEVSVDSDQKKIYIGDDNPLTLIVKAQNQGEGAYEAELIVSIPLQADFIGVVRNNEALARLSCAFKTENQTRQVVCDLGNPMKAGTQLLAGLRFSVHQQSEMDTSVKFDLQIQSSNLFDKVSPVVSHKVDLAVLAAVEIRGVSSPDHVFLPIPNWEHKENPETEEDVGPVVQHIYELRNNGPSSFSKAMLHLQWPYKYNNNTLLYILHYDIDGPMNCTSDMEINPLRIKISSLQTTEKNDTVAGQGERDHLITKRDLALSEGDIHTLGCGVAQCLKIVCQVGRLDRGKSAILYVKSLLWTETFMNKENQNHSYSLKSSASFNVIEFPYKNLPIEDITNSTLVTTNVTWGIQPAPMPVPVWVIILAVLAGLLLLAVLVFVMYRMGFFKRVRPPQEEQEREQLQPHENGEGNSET
T1 chain 2: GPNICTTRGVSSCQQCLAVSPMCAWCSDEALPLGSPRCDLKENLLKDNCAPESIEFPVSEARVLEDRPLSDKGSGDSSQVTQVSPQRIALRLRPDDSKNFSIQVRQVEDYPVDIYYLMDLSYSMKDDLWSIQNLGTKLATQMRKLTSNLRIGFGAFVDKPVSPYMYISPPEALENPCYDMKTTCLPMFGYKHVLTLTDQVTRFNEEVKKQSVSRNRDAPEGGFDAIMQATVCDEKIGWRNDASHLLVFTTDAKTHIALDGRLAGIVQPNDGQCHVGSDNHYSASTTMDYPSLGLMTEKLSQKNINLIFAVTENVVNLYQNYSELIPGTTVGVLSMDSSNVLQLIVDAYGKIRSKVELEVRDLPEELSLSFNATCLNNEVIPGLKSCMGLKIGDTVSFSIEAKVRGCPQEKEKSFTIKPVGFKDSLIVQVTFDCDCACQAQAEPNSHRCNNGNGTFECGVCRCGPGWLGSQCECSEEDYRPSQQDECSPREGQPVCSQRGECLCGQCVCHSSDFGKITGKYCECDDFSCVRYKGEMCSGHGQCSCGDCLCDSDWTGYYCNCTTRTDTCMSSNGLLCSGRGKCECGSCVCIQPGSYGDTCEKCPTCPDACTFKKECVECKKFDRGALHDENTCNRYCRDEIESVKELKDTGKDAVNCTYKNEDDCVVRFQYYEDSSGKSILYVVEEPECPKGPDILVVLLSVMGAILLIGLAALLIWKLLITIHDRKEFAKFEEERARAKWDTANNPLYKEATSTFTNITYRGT
Briefly: real-time quantification of cell binding with Ligand Tracer; 68Ga-labelled cyclo-RGD peptides on tumor cells (AR42J and U87MG named). The note with it: remark: other sources report otherwise.

The target of assay [3] is RGD-recognising integrins. Briefly: standard binding assay on cells (IC50); U-87 MG and SKOV-3 cancer models; the competing ligand is not named.
The target of assay [4] is RGD-recognising integrin receptors.

cyclo(RGD[dF]K) (not fully specified (residue 5); also: 99mTc(CO)3 complex) [99mTc(CO)3-Pra-Tz-CH2-cRGDfK]: the tumor uptake in C57BL/6 mice bearing αvβ3-positive melanoma tumors, maximum at 30 min p.i. (30, 60, 180 min); reduced to 50-60% by cold cRGDfK peptide in assay [1] stood at 3.01 %ID/g.

In the case of cyclo(RGD[dF]K) (also: two c(RGDfK) copies on a Glu core, DOTA chelator, 68Ga label) [68Ga-DOTA-E-[c(RGDfK)2]], the retention on cells in assay [2] is under 58%.

As for cyclo(RGD[dF]K([PEG7′-Tz-Pra])) (reading uncertain; also: 99mTc(CO)3 complex) [99mTc(CO)3-Pra-Tz-PEG7-cRGDfK], the tumor uptake in C57BL/6 mice bearing αvβ3-positive melanoma tumors, maximum at 30 min p.i. (30, 60, 180 min); reduced to 50-60% by cold cRGDfK peptide in assay [1] stood at 4.11 %ID/g.

In assay [3], cyclo(RGD[dF]V) [control c(RGDfV) peptide] registered a 50% inhibitory concentration (IC50) of 600 nM. This lies in the sub-micromolar range.

B1: FPyPEGCBT-c(RGDfK) (peptide)
peptide: cyclo(RGD[dF]K)
modifications: also: cysteine-modified, cysteine site not given here, FPyPEGCBT condensed with that cysteine, 18F in the tracer
In assay [4], B1 returned a tumour uptake 1 h after injection in mice bearing subcutaneous SKOV-3 tumours of 2.4 %ID/g and a tumour uptake 1 h after injection in mice bearing subcutaneous U-87 MG tumours of 2.9 %ID/g. This molecule returned an IC50 in assay [3] of 3080 nM.
